Columns and labels:
[1] = tested on: HBV (Genotype C or Genotype D); test: Live HBV infection of normal human hepatocytes (PXB cells), HBs antigen; details: FIG. 2B, listed as N6HB426-20 antibody gene-derived recombinant antibody
[2] = target: T1, epitope region-containing peptide fragment (AFPPEVIGPLFFFPLLYMIFQLGEG-biotin) (Homo sapiens, UniProt Q14973); test: Surface plasmon resonance assay (BIAcore) of antigen binding affinity
T1 sequence (Q14973 273-297 limits assumed): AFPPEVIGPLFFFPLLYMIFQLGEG
Experimental: In short, a carboxymethylated dextran biosensor chip (CM5, BIAcore Inc.) was activated by N-ethyl-N′-(3-dimethylaminopropyl)-carbodiimide hydrochloride (EDC) and N-hydroxysuccinimide (NHS) in accordance with the provider's instruction. An anti-mouse IgG antibody was diluted with 10 mM sodium acetate (pH5.2) up to 30 μg/ml. The dilution was injected at a flow rate of 5 to 10 μl/minute such that the reaction unit (RU) of the protein bound became 9,000 to 14,000 RU. In contrast, an anti-human IgG antibody was diluted with 10 mM sodium acetate (pH5.0) up to 25 μg/ml. The diluted antibody was injected at a flow rate of 5 to 10 μl/minute such that the reaction unit (RU) of the protein bound became 9,000 to 14,000 RU. After injection of each of the anti IgG antibodies, 1 M ethanolamine was injected in order to block unreactive groups. For kinetic measurement, N6HB426 antibody diluted with a running buffer (HBS-P: 10 mM HEPES pH7.5, 150 mM NaCl, 0.005% NP40) up to 10 μg/ml was immobilized onto CM5 chip via the anti-mouse IgG antibody, in advance. To the chip, a solution of an epitope region-containing peptide fragment ([…]-biotin: SEQ ID NO: 24) diluted with the running buffers at different concentrations was added at 25° C. at a flow rate of 10 μl/minute for 2 minutes. In contrast, the recombinant N6HB426 human chimeric IgG4 antibody was diluted with the running buffer up to 10 μg/ml and then was immobilized onto a sensor chip (CM5) via the anti-human IgG antibody in advance. To the chip, a solution of an epitope region-containing peptide fragment diluted with the running buffers at different concentrations was added at 25° C. at a flow rate of 10 μl/minute for 2 minutes.
The refractive index of the solution varied in correlation to the mass of a chip surface changed when a peptide fragment molecule bound to N6HB426 antibody on the sensor chip, was monitored in real-time. Using simple one-to-one Langmuir binding model (BIAcore Evaluation software version 3.1) by fitting sensor grams of antigen-antibody association and dissociation at the same time, association rate (Ka) and dissociation rate (Kd) were calculated. A Kd/Ka ratio was calculated to obtain an equilibrium dissociation constant (KD).

[3] = 25° C., antibody immobilized on CM5 chip

B1: Recombinant mouse IgG2a antibody: N6HB426 variable regions connected to a constant region of mouse IgG2a antibody (antibody)
heavy: QVQLQQSGAELVKPGASVKLSCKASDFTFTEYTIHWIKQMSGQGLEWIGWFYPGSGDIKYSEKFKDKATLTADKSSSTVYMELNRLTSEDSAVYFCARHMRDFRGFYYGRFYFDYWGQGTTLTVSSAKTTAPSVYPLAPVCGGTTGSSVTLGCLVKGYFPEPVTLTWNSGSLSSGVHTFPALLQSGLYTLSSSVTVTSNTWPSQTITCNVAHPASSTKVDKKIEPRGPTIKPCPPCKCPAPNLLGGPSVFIFPPKIKDVLMISLSPIVTCVVVDVSEDDPDVQISWFVNNVEVHTAQTQTHREDYNSTLRVVSALPIQHQDWMSGKEFKCKVNNKDLPAPIERTISKPKGSVRAPQVYVLPPPEEEMTKKQVTLTCMVTDFMPEDIYVEWTNNGKTELNYKNTEPVLDSDGSYFMYSKLRVEKKNWVERNSYSCSVVHEGLHNHHTTKSFSRTPGK
light: EIVLTQSPAIMSASPGEKVTITCRASSSVSSSYLHWYQQKSGVSPKLWIYSTSNLASGVPARFSGSGSGTSYSLTINSVEAEDAATYYCQQYSGYRWTFGGGTTLEIKRADAAPTVSIFPPSSEQLTSGGASVVCFLNNFYPKDINVKWKIDGSERQNGVLNSWTDQDSKDSTYSMSSTLTLTKDEYERHNSYTCEATHKTSTSPIVKSFNRNEC
inhibitory activity on infection of normal human hepatocytes with HBV [1]: comparable activity
Kd [2]: ~0.1 nM
Ka (1/Ms) association rate [2, 3]: 761.7 M⁻¹ s⁻¹
Kd (1/s) dissociation rate [2, 3]: 2.39e-07 s⁻¹
